Data reported in paper PMC8124269, “Antiviral Properties of the NSAID Drug Naproxen Targeting the Nucleoprotein of SARS-CoV-2 Coronavirus”.

Molecular target: SARS-CoV-2 N NTD (batch 2, monomer) (SARS-CoV-2, UniProt P0DTC9 50-173)
Experiment: DLS; Anisotropy: 10 mM Tris pH 8.0, 50 mM NaCl, 2 mM beta-mercaptoethanol, thermostated (temperature not stated); DLS: 20 mM Tris pH 7.9, 100 mM NaCl, 20 C
Settings: protein: recombinant; tags: N-terminal His6 (pET-28a); single strand

ATATATATCTATGTCCATATATATATAAAACACAGCGTGTGTGTGTAA (ssDNA) [48-mer ssDNA]
binding result: binds
